Results: US20200405852A1 (BIOVERATIV USA, published 2020)

T1: activated human complement C1s (human, UniProt P09871 16-688)
T1 construct: also called aC1s; active C1s
T1 sequence: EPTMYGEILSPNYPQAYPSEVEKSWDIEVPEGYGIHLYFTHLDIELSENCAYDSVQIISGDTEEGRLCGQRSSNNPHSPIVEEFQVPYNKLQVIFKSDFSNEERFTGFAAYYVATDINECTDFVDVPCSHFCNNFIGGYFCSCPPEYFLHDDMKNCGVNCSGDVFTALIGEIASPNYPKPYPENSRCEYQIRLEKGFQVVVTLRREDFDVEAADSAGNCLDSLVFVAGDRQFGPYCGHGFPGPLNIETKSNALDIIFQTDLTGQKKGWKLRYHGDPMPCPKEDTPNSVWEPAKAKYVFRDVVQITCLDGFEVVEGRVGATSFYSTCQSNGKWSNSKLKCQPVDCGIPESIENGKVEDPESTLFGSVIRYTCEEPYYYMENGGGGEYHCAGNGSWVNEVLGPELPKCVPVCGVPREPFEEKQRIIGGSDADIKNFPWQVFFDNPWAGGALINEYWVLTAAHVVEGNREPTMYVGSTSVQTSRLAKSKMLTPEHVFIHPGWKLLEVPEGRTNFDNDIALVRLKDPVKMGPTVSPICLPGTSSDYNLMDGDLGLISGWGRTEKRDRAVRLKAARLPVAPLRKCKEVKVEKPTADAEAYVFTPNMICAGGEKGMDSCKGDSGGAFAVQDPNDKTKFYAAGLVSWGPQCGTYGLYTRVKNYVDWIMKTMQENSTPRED


Assays:
[1] = biological target: T1, activated human complement C1s; experiment: direct binding of antibody to activated C1s (aC1s); assay format not stated
[2] = biological target: T1, activated human complement C1s; experiment: kinetic characterization of binding to active human C1s; instrument not stated; column head kdis
[3] = biological target: T1, activated human complement C1s; experiment: cell-based or functional assay
[4] = biological target: T1, activated human complement C1s; experiment: competition binding to active C1s; competitor 50 pM biotinylated TNT005 (Biot-005)
Protocol: All 15 combinations (VH variant 1+Vk variant 1; VH variant 1+Vk variant 2; VH variant 1+Vk variant 5; VH variant 2+Vk variant 1; VH variant 2+Vk variant 2; VH variant 2+Vk variant 5; VH variant 3+Vk variant 1; VH variant 3+Vk variant 2; VH variant 3+Vk variant 5; VH variant 4+Vk variant 1; VH variant 4+Vk variant 2; VH variant 4+Vk variant 5; VH variant 5+Vk variant 1; VH variant 5+Vk variant 2; VH variant 5+Vk variant 5) were produced. Each humanized variant was tested for the ability to compete with biotinylated TNT005 for binding to active C1s.

[5] = biological target: T1, activated human complement C1s; experiment: kinetic characterization of binding to active human C1s; instrument not stated

EC50 [1] | koff [2] | IC50 of classical complement pathway inhibition (commercial CP activation assay) [3] | IC50 [4] | Kd [5] | kon [5] | Binder
0.134 nM | 0.000172 s⁻¹ | 1.26 nM | 0.158 nM | 0.206 nM | 835000 M⁻¹ s⁻¹ | humanized TNT005 variant VH variant 2+Vk variant 2 (antibody, V domains shown, also called VH variant 2 + VL variant 2) VH: EVQLVQSGAEVKKPGASVKLSCTASGFNIKDDYIHWVKQAPGQGLEWIGRIDPADGHTKYAPKFQVKATITADTSTNTAYLELSSLRSEDTAVYYCARYGYGREVFDYWGQGTTVTVSS VL: DIVLTQSPDSLAVSLGERATISCKASQSVDYDGDSYMNWYQQKPGQPPKILIYDASNLESGIPARFSGSGSGTDFTLTISSLEPEDFAIYYCQQSNEDPWTFGGGTKVEIK
0.113 nM | 0.000471 s⁻¹ | 1.06 nM | 0.0449 nM | 0.457 nM | 1.03e+06 M⁻¹ s⁻¹ | humanized TNT005 variant VH variant 5+Vk variant 1 (antibody, V domains shown, also called VH variant 5 + VL variant 1) VH: QVQLVQSGAEVKKPGASVKVSCAASGFNIKDDYIHWVRQAPGQGLEWIGRIDPADGHTKYAPKFQVKVTITADTSTSTAYMELSSLRSEDTAVYYCARYGYGREVFDYWGQGTTVTVSS VL: DIVLTQSPDSLAVSLGERATISCKASQSVDYDGDSYMNWYQQKTGQPPKILIYDASNLESGIPARFSGSGSGTDFTLTISSLEEEDFAIYYCQQSNEDPWTFGGGTKVEIK
0.124 nM | 0.000166 s⁻¹ | 1.27 nM | 0.168 nM | 0.208 nM | 798000 M⁻¹ s⁻¹ | humanized TNT005 variant VH variant 2+Vk variant 5 (antibody, V domains shown, also called VH variant 2 + VL variant 5) VH: EVQLVQSGAEVKKPGASVKLSCTASGFNIKDDYIHWVKQAPGQGLEWIGRIDPADGHTKYAPKFQVKATITADTSTNTAYLELSSLRSEDTAVYYCARYGYGREVFDYWGQGTTVTVSS VL: DIVLTQSPDSLAVSLGERATISCKASQSVDYDGDSYMNWYQQKPGQPPKLLIYDASNLESGIPARFSGSGSGTDFTLTISSLEPEDFAVYYCQQSNEDPWTFGGGTKVEIK
